This is an account of results in PMC3136172, “Stabilization of a G-Quadruplex from Unfolding by Replication Protein A Using Potassium and the Porphyrin TMPyP4”.

The target of series [1] is RPA (full-length replication protein A) (human, UniProt P27694;P15927;P35244 1-616;1-270;1-121). The series is described as follows: CD titration (G4 unfolding); 100 mM NaCl, 2 mM Mg2+; complete unfolding at RPA:DNA ratio 2; 25 mM Tris pH 7.5, 2 mM MgCl2, 0.5% inositol, 1 mM DTT, 100 mM NaCl or 100 mM KCl, 25 C; 1.4 uM DNA, protein:DNA ratio 0-5. The following applies: protein: recombinant; copies: 1;1;1; intramolecular G4; mixed parallel/antiparallel in K+, antiparallel in Na+.
Chain of RPA (full-length replication protein A) (P27694 whole entry, chain 1 of 3): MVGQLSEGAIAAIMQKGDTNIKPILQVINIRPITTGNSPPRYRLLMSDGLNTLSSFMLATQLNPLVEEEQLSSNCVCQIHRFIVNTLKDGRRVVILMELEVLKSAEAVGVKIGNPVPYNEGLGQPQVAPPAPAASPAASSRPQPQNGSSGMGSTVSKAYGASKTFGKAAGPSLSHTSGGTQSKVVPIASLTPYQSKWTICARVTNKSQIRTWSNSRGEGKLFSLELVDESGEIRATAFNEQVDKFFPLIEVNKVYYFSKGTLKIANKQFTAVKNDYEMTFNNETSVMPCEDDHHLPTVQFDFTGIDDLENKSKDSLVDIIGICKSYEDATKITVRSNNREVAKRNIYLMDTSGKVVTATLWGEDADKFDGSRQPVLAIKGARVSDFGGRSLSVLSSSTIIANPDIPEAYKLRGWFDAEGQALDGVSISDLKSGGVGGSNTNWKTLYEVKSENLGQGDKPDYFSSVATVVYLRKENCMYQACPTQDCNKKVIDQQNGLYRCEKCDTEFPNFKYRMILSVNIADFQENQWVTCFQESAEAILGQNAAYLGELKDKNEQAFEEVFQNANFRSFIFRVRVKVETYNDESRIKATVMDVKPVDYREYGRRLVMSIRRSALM
Chain of RPA (full-length replication protein A) (P15927 whole entry, chain 2 of 3): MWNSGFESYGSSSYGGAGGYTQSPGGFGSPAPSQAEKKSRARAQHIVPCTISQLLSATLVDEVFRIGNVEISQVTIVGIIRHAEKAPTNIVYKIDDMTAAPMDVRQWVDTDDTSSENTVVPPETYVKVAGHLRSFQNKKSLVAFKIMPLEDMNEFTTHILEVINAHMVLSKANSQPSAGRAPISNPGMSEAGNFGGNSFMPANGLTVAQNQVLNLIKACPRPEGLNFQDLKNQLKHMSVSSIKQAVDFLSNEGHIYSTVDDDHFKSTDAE
Chain of RPA (full-length replication protein A) (P35244 whole entry, chain 3 of 3): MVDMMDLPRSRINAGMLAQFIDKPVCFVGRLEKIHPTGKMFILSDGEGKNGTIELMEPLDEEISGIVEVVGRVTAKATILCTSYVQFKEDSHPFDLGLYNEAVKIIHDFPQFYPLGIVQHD

The target of a further series is RPA-CDE-core (UniProt P27694;P15927;P35244 436-616;45-171;1-121). The series is described as follows: CD titration (G4 unfolding); 100 mM NaCl, 2 mM Mg2+; efficient unfolding, less than RPA; 25 mM Tris pH 7.5, 2 mM MgCl2, 0.5% inositol, 1 mM DTT, 100 mM NaCl or 100 mM KCl, 25 C; 1.4 uM DNA, protein:DNA ratio 0-5. The settings on record: protein: recombinant; tags: N-terminal His-tag, thrombin-cleaved; copies: 1;1;1; intramolecular G4; mixed parallel/antiparallel in K+, antiparallel in Na+.
Chain of RPA-CDE-core (P27694 436-616, chain 1 of 3): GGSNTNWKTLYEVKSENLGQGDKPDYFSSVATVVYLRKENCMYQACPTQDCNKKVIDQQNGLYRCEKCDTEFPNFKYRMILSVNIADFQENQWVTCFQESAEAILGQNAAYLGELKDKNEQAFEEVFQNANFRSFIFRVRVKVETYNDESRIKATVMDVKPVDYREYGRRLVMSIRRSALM
Chain of RPA-CDE-core (P15927 45-171, chain 2 of 3): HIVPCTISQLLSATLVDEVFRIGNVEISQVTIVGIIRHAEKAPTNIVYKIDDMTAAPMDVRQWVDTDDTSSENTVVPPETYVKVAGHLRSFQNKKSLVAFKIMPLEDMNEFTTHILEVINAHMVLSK
Chain of RPA-CDE-core (P35244 whole entry, chain 3 of 3): as the sequence (P35244 whole entry, chain 3 of 3) above

As for TAGGGGAAGGGTTGGAGTGGGTT (structured_DNA) [Gq23], the binding result (in series [1]; with RPA-CDE-core) was “binds” throughout.
